Residue numbers refer to the chain shown, from its start. Names and notes keep the numbering of the source. Like-named read-outs stand apart in the source and are kept apart here.
Assays:
cryo-EM structure [1] = target: the molecule itself; test: cryo-EM structure
cryo-EM structure [2] = target: the molecule itself; test: cryo-EM structure; remark: listed apart in the source

B1: SugC (natural protein)
chain: MAEIVLDRVTKSYPDGAGGVRAAVKEFSMTIADGEFIILVGPSGCGKSTTLNMIAGLEEITSGELRIGGERVNEKAPKDRDIAMVFQSYALYPHMTVRQNIAFPLTLAKVPKAEIAAKVEETAKILDLSELLDRKPGQLSGGQRQRVAMGRAIVRSPKAFLMDEPLSNLDAKLRVQMRAEISRLQDRLGTTTVYVTHDQTEAMTLGDRVVVMLAGEVQQIGTPDELYSSPANLFVAGFIGSPAMNFFPATRTDVGVRLPFGEVTLTPHMLDLLDKQARPENIIVGIRPEHIEDSALLDGYARIRALTFSVRADIVESLGADKYVHFTTEGAGAESAQLAELAADSGAGTNQFIARVSADSRVRTGEQIELAIDTTKLSIFDAATGLNLTRDITPTDPTEAAGPDAG
Does B1 bind (cryo-EM structure [1])?
Result: binds

B2: SugC (E164Q) (natural protein)
chain: B1 chain with E164Q
Does B2 bind (cryo-EM structure [2])?
Result: binds
